This series is described as follows: protein stability index of a GFP-peptide fusion (GPS, HEK-293T) (PSI 1-6); higher = more stable.
Setting [1] is: treatment: DMSO, c terminus: a fixed tail appended.
The mark [2] stands for this setting: treatment: MLN4924 1 uM, 8 h, c terminus: a fixed tail appended.

From the supplement of paper PMC10567573 come the findings set out here.

± gives the standard deviation.
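Further: 24-mer peptide tiles fused after GFP, lentivirally expressed, FACS-sorted into six equal bins by GFP/DsRed ratio, decoded by Illumina sequencing, PSI is the read-weighted mean bin number.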

In turn, GTDRIVKIWDMTPVVGCSLATGFS [WDFY1] showed a protein stability index under setting [1] of 2.66 ± 0.16 and a protein stability index under setting [2] of 2.79 ± 0.48.
The corresponding values for GTELIQTPLASSTDHQTPPTSPVQ [HDAC6] are 5.11 ± 0.33 and 5.25 ± 0.29.
In turn, GTFCSLDICLAQLEELGTLNVFQT [PTPN9] had a protein stability index under setting [1] of 2.93 ± 0.92 and a protein stability index under setting [2] of 2.24 ± 0.46.
Turning to GTVHCQIVSTQITRPSGNNGNRRR [PHTF1], the protein stability index by setting is: under setting [1], 4.25 ± 0.18; under setting [2], 4.51 ± 0.21.
For GVRESETEQGFGEDLEDLGAVAPP [NFE2L1], in that order: 5.763 ± 0.026 and 5.9 ± 0.1.
The corresponding values for GVYSMPAGTKVFEVPEMSPVTCCD [TLE6] are 3.84 ± 0.33 and 3.45 ± 0.24.
The corresponding values for HAGEHLLLGATKRSMVFKDVLLLG [HNF4A] are 2.26 ± 0.33 and 2.35 ± 0.4.
Take HCPDCGQQWFPSLELGHWLYQTEL [TOR1AIP2]: the protein stability index under setting [1] was found to be 2.31 ± 0.57 and the protein stability index under setting [2] stood at 2.52 ± 0.41.
On to HCRKCGQAVCGKCSSKRSSYPVMG [WDFY1], for which the protein stability index came out at 3.88 ± 0.3 under setting [1] and 3.91 ± 0.34 under setting [2].
The corresponding values for HFSQGSALILHQRIHSGEKPYGCV [ZNF24] are 2.24 ± 0.37 and 2.55 ± 0.47.
Regarding HFSQIVIFMLCTLVLAIPLLLILV [OR10K2], the protein stability index was determined as 2.24 ± 0.25 under setting [1] and 2.25 ± 0.19 under setting [2].
HGNSGHPLVLSYIDLSAWCYYCQA [HDAC6]: the protein stability index reads like this: under setting [1], 2.73 ± 0.55; under setting [2], 3.14 ± 0.58.
Regarding HHREGLLAIFKSGGIPALVKMLGS [CTNNB1], the protein stability index under setting [1] amounted to 2.82 ± 0.39 and the protein stability index under setting [2] amounted to 2.71 ± 0.64.
In the case of HHSRGNTNKFYMLDSRSTDRVLQW [KLHDC2], the protein stability index is, setting by setting: under setting [1], 2.65 ± 0.39; under setting [2], 2.72 ± 0.19.
The corresponding values for HITKLKPWSLFDVLVEKYGWPHED [SRPK2] are 2.23 ± 0.33 and 2.38 ± 0.11.
Take HKVKAEEEKKAKVAPPAKQAQQKK [BRD3]: the protein stability index runs as follows: under setting [1], 5.5 ± 0.22; under setting [2], 5.5 ± 0.29.
For HLFAGAEVILLVVMAYDRYMAICK [OR4A15], in that order: 2.67 ± 0.29 and 3.02 ± 0.68.
The corresponding values for HLYAEPQKSPWCEARSLEHTLPVN [ESR2] are 2.93 ± 0.23 and 3.38 ± 0.24.
The corresponding values for HLYQSSARRYAGPLHHQTQRFRLD [ELAVL3] are 2.99 ± 0.18 and 3.05 ± 0.32.
Consider HNQIAIYAHQPRTADEIPMEPGDI [FUT8], for which the protein stability index is, setting by setting: under setting [1], 4.6 ± 0.19; under setting [2], 4.52 ± 0.18.
As to HNRKKHLNGLQHLKAKKVWYDMFR [ZMAT5], the protein stability index runs as follows: under setting [1], 2.22 ± 0.44; under setting [2], 2.38 ± 0.27.
With HNSGPPPPPARGRGAPPPPPSRAP [WASL], the protein stability index runs as follows: under setting [1], 5.25 ± 0.29; under setting [2], 5.06 ± 0.15.
For HNTVKLGAFQAQEKELVFDIDMTD [PRIM1], in that order: 4.22 ± 0.19 and 4.52 ± 0.28.
In the case of HPLAQNERCLHMFLQEEAIDRNYV [SNX12], the protein stability index came to 3.17 ± 0.4 under setting [1] and 3.18 ± 0.28 under setting [2].
Take HQRKYTQSFCGENIMMPMGGMMPP [ZNF207]: the protein stability index reads like this: under setting [1], 2.34 ± 0.15; under setting [2], 2.49 ± 0.16.
Turning to HRDMKPDNILLDEHDTWLSYKSH [STK32A], the protein stability index runs as follows: (treatment: DMSO, c terminus: native) 3.68 ± 0.27; (treatment: MLN4924 1 uM, 8 h, c terminus: native) 3.94 ± 0.27.
In the case of HRSSRETRDYAPPSRGHAYRDYGH [RBMY1A1], the protein stability index was 3.87 ± 0.18 under setting [1] and 3.92 ± 0.17 under setting [2].
For HSFELDEKALASILLQDHIRDLDV [ATL3], in that order: 3.26 ± 0.33 and 3.26 ± 0.29.
Take HSFFPDAFDYNSLSPTQRQKNFEL [SMTNL2]: the protein stability index is, setting by setting: under setting [1], 3.35 ± 0.19; under setting [2], 3.44 ± 0.4.
In the case of HTSTARLLLHRGAGKEAMTSDGYT [RIPK4], the protein stability index reads like this: under setting [1], 3.61 ± 0.22; under setting [2], 3.75 ± 0.29.
For HVLPAVLAEVAPVVTTEHILVSVA [PYCR3], the protein stability index runs as follows: under setting [1], 2.65 ± 0.63; under setting [2], 2.8 ± 0.72.
The corresponding values for HVMNPLETLSITNCRLSEGDVMHL [PRAME] are 2.54 ± 0.79 and 2.4 ± 0.24.
For HYANLNGLYGSTVDHQGVSWYHWK [TNXB], in that order: 2.5 ± 0.14 and 2.8 ± 0.66.
Regarding HYFHSISYKIEEISPSTLKNSLFP [KCNK9], the protein stability index under setting [1] was found to be 2.17 ± 0.28 and the protein stability index under setting [2] stood at 2.18 ± 0.18.
With HYGGVVSLIPLILDLMKEWIAHSE [SPACA9], the protein stability index turned out to be 3.02 ± 0.46 under setting [1] and 2.23 ± 0.46 under setting [2].
Regarding ICARACNATLTQYQLLATHVPTVW [RHOBTB2], the protein stability index runs as follows: under setting [1], 2.67 ± 0.13; under setting [2], 2.41 ± 0.4.
For the sequence ICIMDAENITTVSVIKDHHTRSIT [WDR88], the protein stability index was found to be 2.34 ± 0.31 under setting [1] and 2.18 ± 0.24 under setting [2].
The corresponding values for IDDRYGDLDSRTDSDIPEIPPSSD [CDS1] are 5.43 ± 0.34 and 5.45 ± 0.19.
Under setting [1], IEIGCEDKTLAFKMNGYISNANYS [MLH1] returned a protein stability index of 2.34 ± 0.3.
With IELEGISVMVMREILDYIFSGQIR [GAN], the protein stability index is 3.37 ± 0.23 under setting [1] and 2.86 ± 0.49 under setting [2].
As to IERANNVKYGLAATVWSSNVGRVH [ALDH8A1], the protein stability index runs as follows: under setting [1], 2.66 ± 0.29; under setting [2], 2.8 ± 0.25.
For IFCEEHFPVAEQDKLLKHMIIEHK [ZNF277], in that order: 2.75 ± 0.23 and 3.01 ± 0.4.
IFNHERFFWHLTLPERRGTCADRD [CASP6]: the protein stability index runs as follows: under setting [1], 2.6 ± 0.21; under setting [2], 2.93 ± 0.27.
Take IGFGVYFEWTDSPNTAVSVHVSES [ACBD3]: the protein stability index reads like this: under setting [1], 2.64 ± 0.9; under setting [2], 2.95 ± 0.6.
For the sequence IGGNHLKGFSHLDVMLVECYDPKG [KLHL14], the protein stability index runs as follows: under setting [1], 2.11 ± 0.47; under setting [2], 2.21 ± 0.34.
The corresponding values for IGLWGLAVKGSLGSDLGGPLPTDP [TSPAN10] are 2.32 ± 0.27 and 2.39 ± 0.29.
For IGRGTKVILHLKEDQTEYLEERRV [HSP90AB1], in that order: 3.34 ± 0.16 and 3.57 ± 0.29.
The corresponding values for IHDSEFKEYTTRTQAPPSVILGVT [DENND6A] are 3.22 ± 0.17 and 3.29 ± 0.31.
In turn, IHSIALSTFASLIGPFGGFFASGF [CDS2] came in with a protein stability index under setting [1] of 3.12 ± 0.2 and a protein stability index under setting [2] of 2.99 ± 0.16.
The corresponding values for IHSIPKGTEITIAFDFDYGNCKYK [KMT2E] are 2.19 ± 0.31 and 1.98 ± 0.32.
Consider IKECLSKGTFSDVTFKLDDGAISA [RHOBTB1], for which the protein stability index came to 3.67 ± 0.18 under setting [1] and 3.95 ± 0.19 under setting [2].
The corresponding values for IKKIEEHAPGVPKILVGNRLHLAF [RAB40A] are 2.39 ± 0.5 and 2.27 ± 0.2.
For the sequence IKRLWKDSGVQACFNRSREYQLND [GNAI1], the protein stability index worked out at 2.4 ± 0.41 under setting [1] and 2.44 ± 0.72 under setting [2].
For ILDAMAEETRQKQLLADEKMKQLT [TRIM35], in that order: 4.52 ± 0.23 and 4.68 ± 0.21.
The sequence ILEDMRCQYEALVENNRRDVEAWF [KRT36] had a protein stability index under setting [1] of 2.49 ± 0.19 and a protein stability index under setting [2] of 2.84 ± 0.45.
Turning to ILENSSQKENVFKCDSLKEECIPE [FAN1], the protein stability index came to 4.68 ± 0.37 under setting [1] and 4.95 ± 0.09 under setting [2].
The corresponding values for ILRAIGKGSFGKVCIVQKNDTKKM [STK32A] are 2.4 ± 0.45 and 2.56 ± 0.22.
Take ILVMKHNYSQDAADACDIDEIEEV [NETO1]: the protein stability index under setting [1] turned out to be 4.11 ± 0.16 and the protein stability index under setting [2] was determined as 4.18 ± 0.28.
IMNIIDIVSILPYFITLGTDLAQQ [KCNA4] returned a protein stability index under setting [1] of 3.37 ± 0.44 and a protein stability index under setting [2] of 2.95 ± 0.49.
Regarding INQPLPDLKNVKSKIGSTDNIKYQ [MAP2], the protein stability index reads like this: under setting [1], 4.29 ± 0.17; under setting [2], 4.47 ± 0.16.
For INRCSVLRQLGCKDGKNWNSNQAT [SPOPL], in that order: 2.65 ± 0.28 and 2.78 ± 0.28.
On to INTLITSGADTAKCGIHSMFPLHL [ANKRD44], for which the protein stability index reads like this: under setting [1], 1.8 ± 0.21; under setting [2], 2.64 ± 0.84.
For INYLGAESLRPLVQTPPGGSEVVP [IKZF1], the protein stability index under setting [1] is 4.07 ± 0.2 and the protein stability index under setting [2] is 3.88 ± 0.28.
IPNAASEEGDEDDWASNKVMFKIG [WEE1]: the protein stability index by setting is: under setting [1], 4.62 ± 0.13; under setting [2], 4.28 ± 0.3.
The corresponding values for IQDVVQPLTLQVQRPLVSVTVSDA [AUP1] are 3.56 ± 0.28 and 3.58 ± 0.22.
For IQGYRVYYTMDPTQHVNNWMKHNV [PTPRD], in that order: 2.55 ± 0.25 and 2.44 ± 0.47.
The corresponding values for IQQLLEPQQYMAFLPHHIMVKIFR [FBXO34] are 2.13 ± 0.31 and 2.53 ± 0.29.
As to ISENRKRQWPTKSQTDRGASAGKR [SDE2], the protein stability index by setting is: under setting [1], 4.7 ± 0.28; under setting [2], 4.94 ± 0.073.
The corresponding values for ISVQELMGCLGVAKEDGKADTKKR [SMOC2] are 3.88 ± 0.33 and 3.92 ± 0.59.
For ITAGGENVPPIPVETLVKKKIPII [ACSBG2], in that order: 3.71 ± 0.32 and 3.96 ± 0.34.
On to ITFSGRPSRVHASEVESAVWYVKK [FBXO39], for which the protein stability index runs as follows: under setting [1], 2.41 ± 0.21; under setting [2], 2.68 ± 0.32.
In the case of IVNQWSEKFSDEGDSDSALDSVSP [DLC1], the protein stability index is 5.32 ± 0.18 under setting [1] and 5.24 ± 0.23 under setting [2].
